Data published in the supplement of paper PMC10126150.
± gives the standard deviation of the averaged measurements.

Tested on: ATP
Assay: switch fluorescence ratio, 500 uM ATP over buffer (Cy3 cluster intensity, sum of 5 cycles each) (fold (ratio)); higher = stronger signal-on switching upon ATP binding; sequences stand for … in TCGTCGGCAGCGTCAGATGTGTATAAGAGACAGTTTTTTTTTTTTTTTTTTTTTTTTT…TC
Conditions: aptamer strand: ATP DNA aptamer (quencher-CACCTGGGGGAGTATTGCGGAGGAAGG + anchor), 100 nM annealed; ATP concentration: 500 uM
Method in brief: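 The quencher-labelled ATP aptamer, at 100 nM, was annealed to Cy3-labelled switching-strand clusters on a modified Illumina MiSeq flow-cell. The clusters were imaged in selection buffer, then after 15 min with 500 uM ATP at 22 °C, and this buffer/ATP cycle ran five times with NaOH stripping and re-annealing between runs. Per-cluster fluorescence ratios, summed target-cycle over summed buffer-cycle Cy3 intensity, were averaged per switch-domain sequence. Clusters outside 100-1000 RFU were excluded.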
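Further: ATP exposure 15 min at 22 °C before imaging.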

Sequence	switch fluorescence ratio
GAAGGACAGC	1.05 ± 0.034
GAAGGAGCAA	2.54 ± 1.2
GAAGGAGGGA	0.987 ± 0.018
GAAGGAGGGT	0.9731 ± 0.0064
GAAGGCAGCG	1.03 ± 0.017
GAAGGCGGTT	1.029 ± 0.0037
GAAGGGAGGA	1.03 ± 0.077
GAAGGGATTA	1.01 ± 0.04
GAAGGGCCTG	1.05 ± 0.056
GAAGGGGATA	1.01 ± 0.036
GAAGGGGCAG	0.97 ± 0.014
GAAGGGGCTG	1.01 ± 0.14
GAAGGGGTAC	1.16 ± 0.15
GAAGGGGTCC	1 ± 0.042
GAAGGGTGGG	1 ± 0.022
GAAGGTCGGC	0.994 ± 0.036
GAAGGTTAAC	1.03 ± 0.1
GAAGGTTATT	0.9939 ± 0.0047
GAAGTAAGTC	1.104 ± 0.0051
GAAGTAGGTC	1.02 ± 0.041
GAAGTATCGG	0.979 ± 0.024
GAAGTCTGTG	1 ± 0.047
GAAGTGAGGG	0.995 ± 0.017
GAAGTGATAT	1.206 ± 0.0013
GAAGTGCTTT	0.995 ± 0.041

Sequence	switch fluorescence ratio
GAAGTGTGGG	0.962 ± 0.03
GAAGTGTGTG	1 ± 0.021
GAAGTTACGG	1.11 ± 0.015
GAAGTTCCCA	0.979 ± 0.011
GAAGTTCGTG	1.01 ± 0.055
GAAGTTGGTG	0.987 ± 0.026
GAAGTTTCTA	0.999 ± 0.0069
GAAGTTTTTT	1.002 ± 0.0036
GAATAAGCAA	1.56 ± 0.025
GAATAATGGG	1.01 ± 0.033
GAATAATTGG	0.996 ± 0.015
GAATAGTTTT	1.01 ± 0.02
GAATATGAGA	0.9629 ± 0.0051
GAATATTACC	1.06 ± 0.014
GAATCAAGCG	0.986 ± 0.059
GAATCAGCGG	0.989 ± 0.018
GAATCAGGGG	1.11 ± 0.012
GAATCAGTGG	0.993 ± 0.05
GAATCCGGGA	1.05 ± 0.087
GAATCGTTTC	0.996 ± 0.053
GAATGGCACG	1.003 ± 0.008
GAATGGCGG	0.998 ± 0.041
GAATGGGACA	1.13 ± 0.26
GAATGGGGA	0.986 ± 0.021
GAATGGGTCC	1.01 ± 0.029

Sequence	switch fluorescence ratio
GAATGGTTGT	1.02 ± 0.023
GAATGTAGGT	0.993 ± 0.037
GAATGTGACG	1.02 ± 0.013
GAATGTGATA	0.984 ± 0.018
GAATGTTATT	1.001 ± 0.0065
GAATGTTTGA	0.984 ± 0.044
GAATGTTTGG	0.991 ± 0.011
GAATTAAAGT	0.9823 ± 0.0041
GAATTAGGTA	0.962 ± 0.01
GAATTATCAT	0.968 ± 0.015
GAATTGAAAA	1.02 ± 0.026
GAATTGCGGG	1.02 ± 0.087
GAATTTAAAA	0.9747 ± 0.0071
GAATTTAGCG	1.01 ± 0.015
GAATTTGCGC	1.03 ± 0.084
GAATTTTATG	0.9549 ± 0.0062
GAATTTTGCG	0.999 ± 0.021
GAATTTTTTG	0.988 ± 0.012
GACAACATTT	0.9967 ± 0.004
GACAATAAGT	1.04 ± 0.012
GACAATGGTG	1.021 ± 0.0049
GACAATGTAC	4.02 ± 0.16
GACACGGAAA	1.23 ± 0.29
GACAGAGGGA	1.02 ± 0.031
GACAGCCGGT	1.01 ± 0.029

Sequence	switch fluorescence ratio
GACAGGAATT	1.029 ± 0.008
GACAGGGATT	1.1 ± 0.15
GACAGGTGCG	1.274 ± 0.012
GACAGTAGTC	1.001 ± 0.0049
GACAGTCGGG	1.01 ± 0.024
GACATAGGTT	1.034 ± 0.008
GACATAGTTT	1.021 ± 0.01
GACATCAGAG	1.02 ± 0.053
GACATGGACG	1.088 ± 0.0062
GACATGGGTT	0.983 ± 0.015
GACATTCCCT	1.07 ± 0.016
GACATTGGCT	0.948 ± 0.03
GACATTGTGT	0.98604 ± 0.00074
GACATTGTTA	1.01 ± 0.063
GACATTTGGA	1.017 ± 0.0066
GACATTTTTT	0.978 ± 0.036
GACCAAGGGT	0.978 ± 0.012
GACCACAT	1.05 ± 0.004
GACCACTTGA	1.01 ± 0.014
GACCATTGTT	1.01 ± 0.013
GACCCAAGGC	1.194 ± 0.01
GACCGATGGG	1.01 ± 0.013
GACCGATGTG	1.01 ± 0.013
GACCGCTGGT	0.996 ± 0.039
GACCGGGTTC	1.02 ± 0.033
